Test results taken from PMC10179609.
Like-named read-outs stand apart in the source and are kept apart here. Each block holds one substance with its values, some of them ahead of it.

Assays:
[1] = molecular target: F-actin (skeletal rabbit muscle actin) (rabbit) (UniProt P68135); assay: co-sedimentation; with 1.5 μM TnT1 (fragment of human cardiac troponin T); 10 μM F-actin, Tpm 0 to 7.5 μM, 20 °C, 30 mM HEPES-Na pH 7.3, 255 mM NaCl; 100,000 g 40 min, SDS-PAGE of pellet and supernatant
[2] = molecular target: F-actin (skeletal rabbit muscle actin) (rabbit) (UniProt P68135); assay: light scattering on heating; 20 μM phalloidin-stabilized F-actin, 10.5 μM Tpm, 30 mM HEPES-Na pH 7.3, 100 mM NaCl; 350 nm, heating 1 °C/min; Tdiss is the temperature of a 50% decrease in light scattering
[3] = molecular target: F-actin (skeletal rabbit muscle actin) (rabbit) (UniProt P68135)
[4] = molecular target: F-actin (skeletal rabbit muscle actin) (rabbit) (UniProt P68135); assay: co-sedimentation; without TnT1; 10 μM F-actin, Tpm 0 to 7.5 μM, 20 °C, 30 mM HEPES-Na pH 7.3, 200 mM NaCl; 100,000 g 40 min, SDS-PAGE of pellet and supernatant
[5] = molecular target: F-actin (skeletal rabbit muscle actin) (rabbit) (UniProt P68135); assay: as above; remark: listed apart in the source
[6] = viscometry; falling ball micro viscometer, 20 °C, Tpm 1.0 mg/mL (15 µM), 30 mM HEPES-Na pH 7.3, 100 mM NaCl, 4 mM DTT; end-to-end (N- and C-ends) interaction of Tpm dimers; conditions: other: viscometry
[7] = molecular target: α-chain of tropomyosin (αTpm, Tpm 1.1), single chain (human); assay: cross-linking; ααTpm, κκTpm or their equimolar mixture heated to 70 °C, cooled, dimers cross-linked at SH groups with DTNB; SDS-PAGE without β-mercaptoethanol

K50% with TnT1 (Tpm concentration at half-saturation of F-actin) [1]: 0.88 µM
Tdiss (temperature of 50% dissociation of the complex with F-actin) [2]: 42.1 °C
reduction of the sliding velocity of F-actin (2.2 µm/s) in the in vitro motility assay [3]: 30%
K50% (Tpm concentration at half-saturation of F-actin) [4]: 2.37 µM
K50% (Tpm concentration at half-saturation of F-actin) [5]: 1.29 µM
Substance: κκTpm homodimer (kappa-tropomyosin, Tpm 1.2) (natural protein)

K50% with TnT1 (Tpm concentration at half-saturation of F-actin) [1]: 0.71 µM
Substance: ακTpm heterodimer (complex)

The next lines start with the substance.

Substance: ααTpm homodimer (alpha-tropomyosin, Tpm 1.1)
viscosity of the Tpm solution [6]: 0.41 ± 0.04 mPa·s

Substance: κ-chain of tropomyosin (κTpm, Tpm 1.2), single chain (natural protein)
share of heterodimers among the dimers formed from an equimolar mixture [7]: < 90%

Substance: κκTpm homodimer (kappa-tropomyosin, Tpm 1.2)
viscosity of the Tpm solution [6]: 0.09 ± 0.01 mPa·s

Substance: ααTpm homodimer (alpha-tropomyosin, Tpm 1.1) (natural protein)
Tdiss (temperature of 50% dissociation of the complex with F-actin) [2]: 45.9 °C
reduction of the sliding velocity of F-actin (2.2 µm/s) in the in vitro motility assay [3]: 50%
K50% (Tpm concentration at half-saturation of F-actin) [5]: 1.23 µM
